Experiment: soluble fraction after stress (log2 fold change); higher = more stays soluble; pooled small domains, quantitative proteomics
Conditions: stress: pH 4
Summary of the method: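 Pooled custom libraries of small protein domains were subjected to pH 4 and measured by high-throughput quantitative proteomics. The log2 fold change in soluble amount per domain is reported, higher values meaning more remained soluble. This is used as a measure of aggregation propensity.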

Row | Sequence | soluble fraction (log2)
1 | HMETQAGELQDAIRDAIAALPPRTREVFLMSRERNLRYGEIAEALGISVKAVEANMSRALRQLREKLSPFL | 0.108
2 | HMVVTRVKAIDVVNIRKSDSETADKLGKAAVGDEFDLLEKKGNGWSKISYEGGEAYIKSEFLEPSE | 0.034
3 | HMEDDIRSSIRTLDQFISKNQITLSKDVKNYILQLLSNDRMVTINELEKIKIYYDSNENIDLDTVKILLN | -1.4
4 | HMDYAQAQRQAESAIALRPDVERLRLLLIYALQKQGKLREAEQAAADAIKSGLDTPALRQARANLRP | -0.205
5 | HMIDMQIDTARFGTLGVDDDKIITFPKGLPGFEDERRFFLMDHSGSSKIKWLHSADNPGLALV | -0.541
6 | HMNPGAYQVKAGEGLIGLSRRYNVPVDVLASVNNLNTTSSLRVGQTITIPTAAQVNRITQQAQ | 0.254
7 | HMVSSYTMAIQINGKLRATHDFSVDTSQEDIKKIIINLPAIQKYINGVEIKKFIIVPQKIVNIV | -0.0406
8 | HMDIMLLLYKNIKKRRLEIGMSQEELAQKTGYTSRSSIAKIEKGEVDLQLSKIKLFANALRVSQSELMG | -0.31
9 | HMQISMQNIASVKIDDLSDEQIQEFSTKYTAAGYSFPDVENVAKQKGMPSSEIEKLRQRVLTAQNTQEK | -0.346
10 | HMLPLLAFDEKLNRLGYGGGFYDRTLASLAHKGNTITAIGIAYESQKMDKVPTGYFDRPLDGVLTPSGLIM | -0.0764
11 | HMPQPDVIEVRQGIVTGMRPDRRTGWLRDEEDAAGEPKSFSIDVITPKGRTPGKGAVVTYTLTNGKITEVK | 0.143
12 | HMNDGEIAAPVSGTLQSFKVEDGQTVSEGDLVAVMEAMKMETQILATKGGTIRLLVKEGDYLQAGHALMTI | -1.07
13 | HMTTLDTVARQLRDRIREQLDPTGEMSDESLLRTIEEAVYRYSSSGHVLTANEKETVIRRIFHSFR | -0.201
14 | HMETPDLTQLNPILDEYRGQKGAVIPVLQKAQKIYGFLPPEVLRRIAAGMRVPLSKIYGVATFYSQFY | -0.0265
15 | HMKYTEEIFNILSRGGFISANSVSSTVKRYYDALEEDFTEYYDYYKGIGFYLEAGNGYYLFTR | -0.064
16 | HMLGERIRTLRKEIGMSVTELARRVKTSPSHISEIERGEKMPSLNLLVKIAKELKTSIDYLTGLVG | -0.487
17 | HMTAMDTQQKKLIIMYHDIHRLRNVEHFTIQRIADHLLLNFRTVKKFLEMTQEEFDKFSENRW | -0.0481
18 | HMDVNLSIRSGETIGIIGSTGSAKSTLVQLIPRLYDTTEGEVLVGGVNVKNYDLEALRNSVAMVLQKN | -0.155
19 | HMVSRVTTPGVVGKTWQETKQILKQADLTVGSLTRDGKDVTPADGDLVTAQNPSAGQAIVRGSSVDLTFDK | 0.0198
20 | HMGTHVVQEGEYLDLIIEKTIPGSPIRKDLLRKAFVKLNPSAFGGRGNPNYIFARKKLKVPSVEDLKAVIF | -0.36
21 | HMVSINETAFIQIKNSSATEIKEKITALKLDELKNVTITADIRTNKLIVVGPKATINKIQELVIELDTES | -0.49
22 | HMDRESFIKLGRELARSAFAHVGQKSTEKALETAADVLRLKDPNEVLARLGSAELTGRQVVQAIYPELI | 0.0233
23 | HMAADRRKAERPLIDGQAVMDRFEVGPGPMVGKALKFLLALKRAEPDLDLAGTEERLDAWWNEQL | 0.289
24 | HMSESAGKAFDLLFYLAKAGETVSLARLSRETGMNKATALRYLNVLESKGVVERSKLGWTLGLSLFELGSK | -0.508
25 | HMSAQPMEYSRFYSDVTQGRVAEVEIEGREINGRLSTGERFKTFSPETDNKALIGHLLDNGVVIEGKPP | 0.0726

Row | Sequence | soluble fraction (log2)
26 | HMEVEIPSREALLGLVQKHLKPVSFDEFVSHFKLGDERQQVGIKRRLRAMERDGQLVYTKANSYGLPDRM | -0.197
27 | HMFQPFFENLRKASIPVSLREYLTFLEGMKKGLVTYDIEAFYFLARAAMVKDERNIDKFDRAFSATFKG | 0.0456
28 | HMNIWNEWAFKKWIESDEYTGPDMTDFGHRTLVDEEFSKQYKEQMSLFKERVLTDDEFSAKYGDL | -2.07
29 | HMFGELTPDTAKRFLLTAREQEMASLIAQGLTNKEIAFRLGISEATVRTHIYNLFQKVGVQSRIELLNVLH | -0.162
30 | HMKNDNIHMMASKINGIALEVGVLTPGMHPKNDLSEGEVGYIVTNLKTTREAKVGDTVTLAKKPAATPLPG | 0.187
31 | HMTFGENLIRLRRQQGLSQEQLGMRIGVSRQTVSKWELNDTTPEMEKLIALADLFGLSLDELTGRV | -0.392
32 | HMDVSASEVGLTGRQTDVLSLMVKGRSNRDIAELLGLSEGTVKIHITAIFKALGVASRTQALVAAARLGLK | -0.212
33 | HMGVTDLFAVLGFPRSPWLDAEELKQRHHALMADEASANSSPTILNEARRTLQNPALRIRHFLALEFPDH | -0.82
34 | HMGTDGLKDIVLEILKEHPNQLAELIDGKQKVLGFLVGQVMKKTNGAANPKEVNEIIQGEIKK | -0.433
35 | HMKIQTYEDFRNAYPDIQGSLFGSAERYKTDLDWGDVAAKYDADEELKNVRNIFQLVRRYEQKYS | -0.643
36 | HMEPDEESVRLKEEILSRIDYWHTTMPYMGTRKLAAKLRTEGYAVGRKLVRTYMREMGIHAVYP | -0.293
37 | HMSRVSVDGEEVNFEGEIPDDPSRIYELLMGALSEQSRVVVKFFVDGKDALLDEGFPSRYQMIEAESV | -0.733
38 | HMVKRAYGEYVNVKLTDADLSKLKADFPADWQERIERLSTYMASTGKTYKNHLATIRNWARRDAERVSA | -0.292
39 | HMTKRKNTEFRQQQIIEAAAKLIFKYGSEHLTVKRIAAQVGISEAAIYRHFTSKKSILSFLLSHIEE | -0.317
40 | HMGPRPLPAEFTHPSLRALLALGTTRGGVTSADVKTALEAASVPAGRRAAVLRALDDNGIEVHTEP | 0.107
41 | HMHEYSDIEHRILDAAREVFIRKGYDSATMGDIALLAGMSRTSVNYYFRNKERLFEAIFEEII | -1.25
42 | HMKTMAVYPVGTRVLTSDGEIGVVEKQNSEAPERPVIKILKGADGHDYEKPDFKDLMKILTLFIVDTI | 0.0457
43 | HMQPAGEGAILRYLSSGAVKGIGPVMAREIVRRFGTDTFRVMEQEPEKLLKVKGITEQRLQTIMESYQD | 0.145
44 | HMNKRKQRINDLMDLIREQPALSIKNLAEMLNVSEMTIRRDMAYLKSNNLLNRAHGMNFLNS | 0.132
45 | HMRDYDFGNLLYKLRIESGYTQKDIADMLGVTDKAVSKWENGIAKPTTNNIKLLSTIYNVSVEELLNG | -0.754
46 | HMSHGNAALTPRQRLRLARLVVDDQWSVSAAAEFFRVSYPTAAKWARRYVELGPAGMADRSS | -0.0854
47 | HMPRELKVRDVSHQHAGHAGWREGGETHFEVDMKADVFAGTSRVAAHRMVNKVLANELASRVHALQLNLS | -0.308
48 | HMNQKVRQLLSQAQAEMERKNYKQAIKLLDQALAIEPHSGELHFMKGYAWMSMGEFEKALESLYEARNYA | -0.754
49 | HMNDNQNKQMLWELLKDNRAFDNFDNKDYKTIIHLFNETVNTIDHRTPNLDLIKKNKIFIQDIMQKLSNL | -1.04
50 | HMSGSLLQTRQRLQALTDLGHYKGDLAAAWGPEAIEALKRAQAALGITVDGKWGPETEDAIQVALQAQT | -0.133

Row | Sequence | soluble fraction (log2)
51 | HMQVSDTNTLEQFAKEVIEANPKAVEDYHQNPLAIGFLVGQLMKVSKGSANPQTGKEILEKLL | -0.185
52 | HMGQPGNWTSYVFKNSDTEPAKPTSSGPIPSGWNDAPTGVGIWWMSKATIDASTGKAGSWSTPIRVTGED | 0.0155
53 | HMNAEGLIGREAVALTAVDAHGGRVRLGGEEWSARLSKENGGVSRLSVGDPVRVTDIDGAIAVVAP | 0.0456
54 | HMSRAHTELEEKLLTMLEENDMTLPMRVISNIASRIEGIIIPEEKILEVLKKSYDRYREHQMD | -0.784
55 | HMDDTRLLSEIGLSQRVLNALRARGIERVGQVLAMRPDQLLGIRNFGPRALQELRERLQENGYTEGPLFSG | -0.252
56 | HMTSSQLYLIEEDMEGERLDAFLAEVIADLSRTAIKDLISNGRVLVDGQARKPSYRVKEGEQVLIHVPEAR | -1.31
57 | HMYNPAYDAEIKVILELARHGYWEEARERADELLKAAPDDTGVKRIQTWVRQQEQRMREQAIEDSIRA | -0.206
58 | HMEHVVFEVTESGELENNTAVKHVLNSFNNKSLNLAIDDFGTGYSNLRYIRDMMFGIIKIDRLFIKDINES | 0.158
59 | HMETVQTGTVKVSNSLNVRSGAGTNYSVLGSLSNGAKVEIVGTSGSWYKIKYGSGYGYVSKDYVTVS | -0.28
60 | HMGVSLNELAYRRFKQALVTLSYKPGEYLNTAQVMNDLDMGRTPINQAIHRLANEGLLQVIPRKGVMVS | 0.026
61 | HMASVAKHIRRLRTERHMTQGDLAEKLFVTRQTVSAWETGKAQPDLETLERIAVVLGVEVTELIYGAP | -0.537
62 | HMAISEEEATNLALERVPGASAQDLRIQLEFDDGVQKYEGDIIYDGKEYDFEIDANTGTFLEWSE | 0.22
63 | HMGEIVVPDLIGKSLTEATRILSDSTLTVGKVNYQISSTLLPNTVLDQYPAPGNKLNSGNTVDLFITKE | -0.0586
64 | HMSSDKVWSFEASGKQLQASYVAFENETVYLRASEDGSLLQFPLTDFGMKDQLVVLELYELSAKINRSN | -0.779
65 | HMPARTANEEAIRKYLLNHDSITRKETQALLKTGQSAAGRILKEMVENGWLARIGNGRSTGYELR | 0.244
66 | HMEVLTEPKVQSIDTHGEKSTFVIESPNPLQPDEIAKLVGADGISVRVDRTWLKSHRDSTWTYSILTVS | 0.163
67 | HMPPNHADLKSSGLKATLPRLKILEIFQNSQVRHLSAEDVYKLLLAENLDVGLATVYRVLTQFEQAGL | -0.511
68 | HMESVTETFLTNLINRYIADKAGYIISYPSEYRIEVLYHGGQVLDYENLRKSINTYIPAHIGYKLVTI | -0.158
69 | HMKIIDDIQEFAGVTKTQNTFFHIFNHLHQNGKQLILTSDRAPVMLQGMEERLLTRFKWGLVAELE | 0.158
70 | HMTLPGQDFIRASQLKELIAKYDKQYYEEGVSDISDAEYDRLYEEYLEFENKYPELKDMADAPTKRV | -0.661
71 | HMDINIETLNYYVGKAKIPLSELRISVKNIDLFLSGEKQPTFNQLSSIAKKLNIPTGLLLLDESIEV | -1.34
72 | HMGGEEINMINLVGLSQSEAENQLAKLKLKIGQVTAEYSDKPSGTVLKQSISANNKVKKGADIDIVVSKG | 0.207
73 | HMEFPLSPHQYSVLRLMAQGLSNKQIAERLFLSENTVKGYVQEVLRRLGARNRLEAVMIANRRGWL | -0.606
74 | HMGETWYEILEISSDATTEEIRQAYFEQARQYHPDTNPGELAREWFYQVQEAYETLSDPDRRRQYDESIKG | -2.16
75 | HMFEARNTTFSEDGKTITETYGVKRIETEFVSDSTIVQKLYDNDVLTKTKTITFSADGLSIKEDV | -1.33
